How the values were obtained:
Test in all cases: BLI
[1] = target: TBTI_13C3x8D3 LC_N93A_mIgG1 (mouse)
[2] = target: TBTI_13C3x8D3_HC_Y52A-S101A/LC_Y49A-Y92A-mIgG1 (mouse)
[3] = target: TBTI_13C3x8D3 HC_Y53A_mIgG1 (mouse)
[4] = target: TBTI_13C3x8D3 HC_T100A_mIgG1 (mouse)
[5] = target: TBTI_13C3x8D3_HC_S101A/LC_Y92A_mIgG1 (mouse)
[6] = target: TBTI_13C3x8D3 LC_Y49A_mIgG1 (mouse)
[7] = target: TBTI_13C3x8D3_HC_N31A/LC_Y92A_mIgG1 (mouse)
[8] = target: TBTI_8D3x13C3_mIgG1 (mouse)
[9] = target: TBTI_13C3x8D3 HC_N31A_mIgG1 (mouse)
[10] = target: TBTI_13C3x8D3_HC_Y52A/LC_Y49A_mIgG1 (mouse)
[11] = target: TBTI_13C3x8D3 LC_N31A_mIgG1 (mouse)
[12] = target: TBTI_13C3x8D3 HC_Y52A_mIgG1 (mouse)
[13] = target: TBTI_13C3x8D3_mIgG1 (mouse)
[14] = target: TBTI_13C3x8D3 LC_Y92A_mIgG1 (mouse)
[15] = target: TBTI_13C3x8D3 LC_G68I_mIgG1 (mouse)
Anti-mTfRC 8D3 (mouse) = target: Anti-mTfRC 8D3 (mouse)
[16] = target: TBTI_13C3x8D3_HC_Y52A/LC_Y92A_mIgG1 (mouse)
[17] = target: TBTI_13C3x8D3 HC_S101A_mIgG1 (mouse)

Kd [1]: 4.16 nM | koff [1]: 0.000112 s⁻¹ | kon [1]: 27100 M⁻¹ s⁻¹ | Kd [2]: 19.6 nM | koff [2]: 0.00111 s⁻¹ | kon [2]: 32600 M⁻¹ s⁻¹ | Kd [3]: 4.25 nM | koff [3]: 0.000124 s⁻¹ | kon [3]: 29200 M⁻¹ s⁻¹ | Kd [4]: 3.83 nM | koff [4]: 0.000233 s⁻¹ | kon [4]: 60800 M⁻¹ s⁻¹ | Kd [5]: 6.94 nM | koff [5]: 0.000357 s⁻¹ | kon [5]: 51400 M⁻¹ s⁻¹ | Kd [6]: 4.46 nM | koff [6]: 9.9e-05 s⁻¹ | kon [6]: 22100 M⁻¹ s⁻¹ | koff [7]: 0.000553 s⁻¹ | kon [7]: 62100 M⁻¹ s⁻¹ | Kd [8]: 0.4 nM | koff [8]: 2.9e-05 s⁻¹ | kon [8]: 74400 M⁻¹ s⁻¹ | Kd [9]: 6.61 nM | koff [9]: 0.000159 s⁻¹ | koff [10]: 0.000689 s⁻¹ | kon [10]: 793000 M⁻¹ s⁻¹ | Kd [11]: 2.18 nM | koff [11]: 5.4e-05 s⁻¹ | Kd [12]: 17.9 nM | koff [12]: 0.000521 s⁻¹ | kon [12]: 29200 M⁻¹ s⁻¹ | Kd [13]: 2.83 nM | koff [13]: 9.9e-05 s⁻¹ | kon [13]: 35300 M⁻¹ s⁻¹ | Kd [14]: 6.88 nM | koff [14]: 0.000149 s⁻¹ | kon [14]: 21700 M⁻¹ s⁻¹ | Kd [15]: 3.84 nM | koff [15]: 0.000105 s⁻¹ | kon [15]: 27200 M⁻¹ s⁻¹ | Kd (Anti-mTfRC 8D3 (mouse)): 0.54 nM | koff (Anti-mTfRC 8D3 (mouse)): 3.9e-05 s⁻¹ | kon (Anti-mTfRC 8D3 (mouse)): 71300 M⁻¹ s⁻¹ | Kd [16]: 29.2 nM | koff [16]: 0.000734 s⁻¹ | kon [16]: 25200 M⁻¹ s⁻¹ | Kd [17]: 8.96 nM | koff [17]: 0.000258 s⁻¹ | kon [17]: 28800 M⁻¹ s⁻¹
Substance: mouse transferrin receptor protein (mTfR), Sino Biological 50741-M07H (from UniProt Q62351 89-763)
